Source: PMC10006412

Biological target: Newcastle disease virus phosphoprotein (P protein) (Newcastle disease virus)
Assay: cryo-EM structure

**Q.** With “Newcastle disease virus phosphoprotein (P protein) (natural protein)” as the substance, how does the stoichiometry N read?
**A.** 4
